According to patent US20150093787:

Target: Int-His6 (bacteriophage lambda integrase, with IHF; BP Clonase) (Bacteriophage lambda) (UniProt P03700+P0A6X7+P0A6Y1)
Assay: cell_activity
Settings: degenerate pool vs attB1-LacZa-attB2, overnight

Sequence of UniProt P03700 (P03700 whole entry, chain 1 of 3): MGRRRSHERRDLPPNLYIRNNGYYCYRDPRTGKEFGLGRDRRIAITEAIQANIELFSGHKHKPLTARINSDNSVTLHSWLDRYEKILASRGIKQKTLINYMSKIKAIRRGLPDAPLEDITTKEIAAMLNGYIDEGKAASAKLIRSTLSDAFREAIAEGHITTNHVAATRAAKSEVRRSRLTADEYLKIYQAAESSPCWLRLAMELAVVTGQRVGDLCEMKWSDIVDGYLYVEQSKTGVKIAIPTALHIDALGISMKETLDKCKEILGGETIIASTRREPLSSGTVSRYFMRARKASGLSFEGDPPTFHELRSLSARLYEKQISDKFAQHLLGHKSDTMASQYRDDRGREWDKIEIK
Sequence of UniProt P03700 (P0A6X7 2-99, chain 2 of 3): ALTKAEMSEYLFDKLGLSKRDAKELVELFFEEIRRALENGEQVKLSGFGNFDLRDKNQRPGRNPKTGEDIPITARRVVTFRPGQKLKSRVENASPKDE
Sequence of UniProt P03700 (P0A6Y1 whole entry, chain 3 of 3): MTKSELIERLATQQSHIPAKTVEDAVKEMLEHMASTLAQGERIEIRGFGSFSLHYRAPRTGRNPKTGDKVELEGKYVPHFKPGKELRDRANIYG

Sequence | binding signal
GGGGACAAGTTTGTACAAAAAAGCNNNNN (double strand) [attB1n21-25] | 14%
GGGGACAAGTTTGTACAAANNNNNAGGCT (double strand) [attB1n16-20] | 1.5%
GGGGACCACTTTGTACAAGAAAGCNNNNN (double strand) [attB2n21-25] | 21%
GGGGACCACTTTGTACAAGNNNNNTGGGT (double strand) [attB2n16-20] | 0.9%
